Results: patent US10053696B2, “MiRNA-489 in treatment of breast cancer” (University of South Carolina, priority 2016, dated 2018)

B1: miR-489: microRNA-489 (SEQ ID NO: 2); overexpressed in cells, e.g. from miR-489 expressing vector in the luciferase assay (nucleic acid, listed as Homo sapiens)
chain: GUGGCAGCUUGGUGGUCGUAUGUGUGACGCCAUUUACUUGAACCUUUAGGAGUGACAUCACAUAUACGGCAGCUAAACUGCUAC

Key:
[1] = test system: miR-489, miR-125b and miR-99a expression in MCF7 HER2 cells; assay: qRT-PCR of HER2-regulated miRNAs after lapatinib treatment; type: cell-based; conditions: lapatinib treated MCF7 HER2 cells, qRT-PCR (FIG. 4)
Description: All data are representative of three independent experiments.
(§1) Quantitative real-time RT-PCR analysis, Immunohistochemistry staining (IHC), Western Blot analysis, Fluorescence-Activated Cell Sorting (FACS) assay, Luciferase assay and Xenograft experiments were performed using standard protocol.
(§2) To identify specific miRNAs that may be involved in promotion of breast cancer progression, expression profiles of several (˜200) miRNA were screened and compared for HER2 over-expressing and control MCF7 cells using quantitative RT-PCR (qRT-PCR) analysis.

[2] = test system: HER2, AKT and MAPK phosphorylation in MCF7 vect and MCF7 HER2 cells; assay: Western blot of HER2 signaling after lapatinib treatment; type: cell-based; conditions: 2 μM lapatinib, 48 h, Western blot (FIG. 3)
Description: as §1, §2

3′UTR of HER2 = assay: Dual luciferase assay with HER2 3′UTR reporter constructs; type: cell-based, human; conditions: MCF7 HER2 cells, co-transfected 48 h, normalized with renilla (FIG. 16)
Description: FIG. 16 presents a schematic representation of the HER2 mRNA (wild type (wt) and mutant (mut)) with putative miR-489 binding site in the 3′ UTR, where the seed region is highlighted. MCF7 HER2 cells were co-transfected with either of miR-489 expressing vector or empty vector and renilla expressing vector for 48 h. Firefly luciferase was measured for each condition and normalized with renilla luciferase. Normalized luciferase activity was compared with WT-3′UTR and Mutant 3′ UTR of HER2 (graph).
A 650 bp long 3′ UTR of human HER2 was amplified from genomic DNA and cloned into the pGL3-promoter vector at the same Xba I and BamH I sites. For the mutation analysis putative miR-489 target site within 3′UTR of HER2 was mutated by Phusion site directed mutagenesis kit (Thermofisher Cat# F-541). All sequences were verified by direct sequencing of the plasmids.
as §1
To examine the similar effect of mimic-489 treatment on the expression of HER2, other breast cancer cell lines, AU-565, BT-474, HCC-1954 and ZR-75-1 cells were treated with mimic-489 for 72 hours to isolate total protein and RNA. […]

SHP2 = SHP2 expression in breast cancer cell lines after miR-489 overexpression; type: cell-based; conditions: mRNA and protein levels

Row | Molecule | expression of miR-489, miR-125b and miR-99a after inhibition of HER2 phosphorylation [1] | HER2, AKT and MAPK phosphorylation [2] | luciferase activity of mutant HER2 3′UTR (3′UTR of HER2) | luciferase activity of wt HER2 3′UTR (3′UTR of HER2) | SHP2 expression (SHP2)
1 | CS(=O)(=O)CCNCc1ccc(-c2ccc3ncnc(Nc4ccc(OCc5cccc(F)c5)c(Cl)c4)c3c2)o1 [lapatinib] | at least partially restored the expression profile | almost complete blockade | – | – | –
2 | B1 | – | – | not the mutant HER2 3′UTR is significantly reduced | significantly reduced | reduced SHP2 expression
